Where no end group is shown, it is not given here.
Assays:
[1] = molecular target: T1, PD-1 pITIM peptide KEDPSAVPVFSVD(pY)GELDFQWRE (phosphotyrosine (pY) at peptide residue 14 (PD-1 ITIM tyrosine)); assay: peptide ELISA with antibody supernatants
T1 construct: Coated on ELISA plates at 1 µg/ml; also called negative control pITIM peptide
T1 peptide: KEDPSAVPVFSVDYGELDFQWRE

[2] = molecular target: T2, BSA (UniProt P02769 25-607); assay: ELISA, hybridoma screen
T2 construct: Carrier control in the hybridoma ELISA screen; also called carrier
T2 sequence (P02769 25-607 limits assumed): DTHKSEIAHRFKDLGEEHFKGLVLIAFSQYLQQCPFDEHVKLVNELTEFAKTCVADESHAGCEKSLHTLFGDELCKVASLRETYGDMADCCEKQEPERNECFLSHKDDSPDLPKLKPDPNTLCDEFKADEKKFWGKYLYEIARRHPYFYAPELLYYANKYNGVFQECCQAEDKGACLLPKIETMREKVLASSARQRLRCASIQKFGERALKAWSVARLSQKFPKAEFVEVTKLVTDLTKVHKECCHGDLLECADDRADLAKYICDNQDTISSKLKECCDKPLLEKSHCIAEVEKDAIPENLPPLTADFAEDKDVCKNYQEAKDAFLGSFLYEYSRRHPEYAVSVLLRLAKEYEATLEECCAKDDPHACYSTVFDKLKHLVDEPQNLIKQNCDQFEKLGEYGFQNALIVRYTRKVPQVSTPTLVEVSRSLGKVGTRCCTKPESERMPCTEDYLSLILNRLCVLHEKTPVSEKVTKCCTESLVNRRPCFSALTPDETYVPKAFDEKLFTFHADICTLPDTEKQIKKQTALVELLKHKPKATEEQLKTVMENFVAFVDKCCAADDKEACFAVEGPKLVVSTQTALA
Source text: (§1) Hybridoma wells were screened by western blot on pervanadate treated Jurkat-hPD-1 lysates and by ELISA on PD-1 p248Tyr peptide conjugated to BSA and lack of reactivity to unphosphorylated peptide or BSA.

[3] = molecular target: T3, unphosphorylated peptide (unphosphorylated form of the PD-1 p248Tyr peptide) (human, not fully specified); assay: ELISA, hybridoma screen
T3 peptide: VPEQTEYATIVF
Source text: as §1

B1: rabbit mAb 2H2/2K4 (antibody, V domains shown)
VH: QSLEESGGDLVKPGASLTLTCKASGFSFSGSYHMCWVRQAPGKGLEWIAHIYVGSSGGTYYASWAKGRFAISKTSSTTVTLQMTSLTAADTATYFCARRDTGGTSAYALWGQGTLVTVSS
VL: DVVMTQTPSSASEPVGGTVTIKCQASQSVSSRLAWYQQKPGQPPKLLIYKASTLASGVPSRFKGSGYGTEFTLTISDLECADAATYYCQCTYIDSTYGNNFGGGTEVVVK
notes: Rabbit monoclonal tested as culture supernatant, detected with anti-rabbit IgG Fc
binding result [1]: no binding

B2: rabbit mAb 6H2/6K2 (antibody, V domains shown)
VH: CQSVEESGGRLVTPGTPLTLTCTVSGIDLNYYAMGWVRQAPGKGLEYIGWIKSSGSAYYARWVNGRFTISKTSSTTVDLKMTSPTTEDTATYFCARDGHNIIEYYDLWGQGTLVTVSS
VL: AIKMTQTPSSAEAAVGGTITINCQASQSISSSLAWYQQKPGQPPKLLIYKASTLASGVPSRFSGSRSGTQFTLTISGVQCDDAATYYCQQGWSGDNVDNIFGGGTEVVVK
notes: Rabbit monoclonal tested as culture supernatant
binding result [1]: no binding

B3: anti-phosphorylated PD-1 monoclonal antibody 407.6G12 (antibody, mouse IgG2a, V domains shown)
VH: EVQLVESGGGLVQPKGSLKLSCAASGFTFNTYAMNWVRQAPGKGLEWVARIRSKSDNYATYYADSVKDRFTISRDDSQSMLYLQMNNLKTEDTAMYYCMRGITTVNVWGAGTTVTVSS
VL: DIVMTQSQKFMSTSVGDRVSVTCKASQNVGTNVAWYQQKPGQSPKALIYSASYRYSGVPDRFTGSGSGTDFTLTISNVHSEDLAEYFCQQYNFYPLTFGAGTKLELK
notes: Mouse IgG2a, kappa; A BV421-conjugated version was used for flow cytometry; also called clone 407.6G12; 307.6G12
binding result [2]: no binding | binding result [3]: no binding
